This is an account of results in US20160108110A1 (Novartis, published 2016).

Assay [1] has as its target T1, Human ANGPTL4(26-406)-FLAG-His6-Avi (human, UniProt Q9BY76 24-406, biotin on the C-terminal Avi tag in the biotinylated preparations (immobilised form in SET, ELISA and Octet)).
T1 construct: also called full-length human ANGPTL4; hANGPTL4
T1 sequence: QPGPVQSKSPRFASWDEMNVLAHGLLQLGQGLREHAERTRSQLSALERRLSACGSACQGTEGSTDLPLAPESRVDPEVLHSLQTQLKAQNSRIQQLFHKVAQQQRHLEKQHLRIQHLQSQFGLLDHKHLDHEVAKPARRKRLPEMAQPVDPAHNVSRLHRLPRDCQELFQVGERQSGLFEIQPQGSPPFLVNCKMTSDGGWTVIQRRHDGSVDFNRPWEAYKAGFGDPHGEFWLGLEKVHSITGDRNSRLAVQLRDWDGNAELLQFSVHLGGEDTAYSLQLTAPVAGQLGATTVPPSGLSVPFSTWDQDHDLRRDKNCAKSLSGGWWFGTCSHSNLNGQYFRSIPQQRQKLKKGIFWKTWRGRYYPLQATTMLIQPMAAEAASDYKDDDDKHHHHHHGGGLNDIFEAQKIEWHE
Kind of assay: SET assay (solution equilibrium titration, MSD), IgG.

Assay [2] concerns the target T2, Human ANGPTL3(17-460)-FLAG-His-Avi (human, UniProt Q9Y5C1 17-460, biotin on the C-terminal Avi tag).
T2 construct: also called full length human ANGPTL3; hANGPTL3
T2 sequence: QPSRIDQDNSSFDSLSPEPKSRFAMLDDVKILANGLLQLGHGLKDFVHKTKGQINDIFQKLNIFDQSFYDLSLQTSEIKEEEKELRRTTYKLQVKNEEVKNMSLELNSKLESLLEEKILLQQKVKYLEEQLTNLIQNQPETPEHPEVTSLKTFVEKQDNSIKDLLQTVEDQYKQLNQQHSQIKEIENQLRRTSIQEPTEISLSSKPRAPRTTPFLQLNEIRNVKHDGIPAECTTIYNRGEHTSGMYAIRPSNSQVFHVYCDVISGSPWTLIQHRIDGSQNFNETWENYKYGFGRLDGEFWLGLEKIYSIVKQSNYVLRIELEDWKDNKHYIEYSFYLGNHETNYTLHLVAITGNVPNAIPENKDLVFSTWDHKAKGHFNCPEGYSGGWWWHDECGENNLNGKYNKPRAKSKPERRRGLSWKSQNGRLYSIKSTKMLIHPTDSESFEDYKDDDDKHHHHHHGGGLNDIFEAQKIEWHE
The experiment in a line: direct ELISA on streptavidin-coated MSD plate: biotinylated antigen immobilised at 1 nM, antibody at 1 nM, detection with Sulfo-tagged goat anti-human IgG. On the procedure:
Direct ELISA assays were conducted to characterize antibody binding specificity of selected antibodies of the invention. The assay was performed as follows. A 384-well streptavidin-coated Meso Scale Discovery (MSD) plate was blocked by incubating the plate with 50 μL Blocking Buffer (PBS, pH 7.4, 5% w/v bovine serum albumin) per well at 22° C. for 1 hour with constant shaking (600 rpm). The blocked MSD plate was then washed 3 times with Wash Buffer (PBS, pH 7.4 and 0.05% v/v Tween-20) using a plate washer (BioTek). Following washing, biotinylated human ANGPTL4 proteins diluted in Assay Buffer (PBS, pH 7.4 without CaCl₂ or MgCl₂, 0.5% w/v fatty acid-free bovine serum albumin and 0.02% v/v Tween-20) were immobilized on the surface by incubation at 1 nM concentration (15 μL per well) at 22° C. for one hour: full length human ANGPTL4 (hANGPTL4), human ANGPTL4 coiled-coil domain (hANGPTL4-CCD) and full length human ANGPTL3 (hANGPTL3). The plate was then washed 3 times as described earlier. Antibody diluted to 1 nM concentration in Assay Buffer was then applied to the MSD plate […], and the plate was incubated for 1 hour at 22° C. with constant shaking (600 rpm). Bound antibodies were detected by adding 15 μL per well of a 1:500 dilution of Sulfo-tagged goat anti-human IgG. The plate was then incubated for one hour with constant shaking (600 rpm). The plate was washed 3 times, and then 15 μL/well of 1×MSD read buffer T was added and the plate was developed using a Sector Imager 6000 (Meso Scale Discovery). The data were transferred to Microsoft Excel for analysis and plotted using GraphPad Prism v6. […] An ANGPTL3-specific reference antibody was used as a positive control for the ANGPTL3 binding assay (FIG. 2).
(In general: An ELISA detects its analyte on a solid surface through an enzyme-linked reagent.)

Assay [3] addresses T1, Human ANGPTL4(26-406)-FLAG-His6-Avi. Kind of assay: cell-based or functional assay.

By Kd is commonly meant the constant that tells how readily two partners part at equilibrium. Low values mean a tighter complex, high ones a looser complex.

B1: MOR022765 (antibody, human IgG1, lambda, V domains shown)
VH: EVQLVQSGAEVKKPGESLKISCKGSGYSFSTYWISWVRQMPGKGLEWMGIIDPSSSDTRYSPSFQGQVTISADKSISTAYLQWSSLKASDTAMYYCARVYGYVYMDVWGQGTLVTVSS
VL: SYELTQPLSVSVALGQTARITCSGDNLGKKYAYWYQQKPGQAPVLVIYDKTKRPSGIPERFSGSNSGNTATLTISRAQAGDEADYYCASYDWYSSSYVFGGGTKLTVLG
notes: human IgG1
For B1, the Kd in assay [1] was found to be 0.01 nM.

B2: MOR021798 (antibody, human IgG1, lambda, V domains shown)
VH: QVQLLESGGGLVQPGGSLRLSCAASGFTFSDYALHWVRQAPGKGLEWVSRISYMGSSTYYADSVKGRFTISRDNSKNTLYLQMNSLRAEDTAVYYCAREHYYSSPMGGVAVDNWGQGTLVTVSS
VL: DIVLTQPPSVSGAPGQRVTISCSGSSSNIGYNTVSWYQQLPGTAPKLLIYSNNIRPSGVPDRFSGSKSGTSASLAITGLQAEDEADYYCSSWDFLIKSLVFGGGTKLTVLG
notes: human IgG1
B2: in assay [2], the binding result is recorded as “no binding (tested: 1 nM)”. Further, binding in assay [1] was characterised by a dissociation constant (Kd) of 0.093 nM. The “Reversal of human ANGPTL4 inhibition of human LPL EC50” value in assay [3] is 2 nM.

B3: MOR021792 (antibody, human IgG1, lambda, V domains shown)
VH: QVQLLESGGGLVQPGGSLRLSCAASGFTFSDYAMDWVRQAPGKGLEWVSKISYDGSYTYYADSVKGRFTISRDNSKNTLYLQMNSLRAEDTAVYYCARPSMSYYIIPAGFDVWGQGTLVTVSS
VL: DIELTQPPSVSVSPGQTASITCSGDALGVKRASWYQQKPGQAPVLVIYKDNNRPSGIPERFSGSNSGNTATLTISGTQAEDEADYYCSVRTWSMNLYVFGGGTKLTVLG
Consider B3, for which the binding result in assay [2] is “no binding (tested: 1 nM)”. In assay [1], this molecule came in with a Kd of 0.01 nM. Moreover, in assay [3], the “Reversal of human ANGPTL4 inhibition of human LPL EC50” value turned out to be 1 nM.
